Reference: the supplement of paper PMC9112550, “Optimization of the antimicrobial peptide Bac7 by deep mutational scanning” (BMC Biology, 2022)

System: Escherichia coli TOP10
Assay: shrunken log2 fold change of peptide-encoding DNA abundance (4.5 h post-induction vs induction); higher = less antimicrobial activity (less host growth inhibition)
Conditions: time post-induction: 4.5 h; library: site-saturation at positions 5, 18, 19, 20
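Further: peptides expressed intracellularly from a pBAD plasmid library in pooled LB shake-flask culture, induced with 0.3% L-arabinose, DNA abundance read by NGS, three biological replicates, DESeq2 with apeglm shrinkage.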

Row | Sequence | shrunken log2 fold change
1 | RRIRIRPPRLPRPRPRPRAPPRP | 0.347
2 | RRIRIRPPRLPRPRPRPRAWPRP | 0.187
3 | RRIRIRPPRLPRPRPRPRDGPRP | 0.575
4 | RRIRIRPPRLPRPRPRPREKPRP | 0.111
5 | RRIRIRPPRLPRPRPRPRETPRP | 0.0956
6 | RRIRIRPPRLPRPRPRPRFEPRP | 0.131
7 | RRIRIRPPRLPRPRPRPRFNPRP | -0.173
8 | RRIRIRPPRLPRPRPRPRFTPRP | -0.043
9 | RRIRIRPPRLPRPRPRPRGQPRP | 0.413
10 | RRIRIRPPRLPRPRPRPRHSPRP | -0.646
11 | RRIRIRPPRLPRPRPRPRHTPRP | -0.34
12 | RRIRIRPPRLPRPRPRPRIFPRP | -1.13
13 | RRIRIRPPRLPRPRPRPRPDPRP | 0.0926
14 | RRIRIRPPRLPRPRPRPRPHPRP | 1.98
15 | RRIRIRPPRLPRPRPRPRPMPRP | 0.129
16 | RRIRIRPPRLPRPRPRPRQHPRP | -0.199
17 | RRIRIRPPRLPRPRPRPRQMPRP | 0.0961
18 | RRIRIRPPRLPRPRPRPRREPRP | 0.123
19 | RRIRIRPPRLPRPRPRPRSWPRP | 0.394
20 | RRIRIRPPRLPRPRPRPRTAPRP | 0.436
21 | RRIRIRPPRLPRPRPRPRTRPRP | 0.0709
22 | RRIRIRPPRLPRPRPRPRTYPRP | -0.726
23 | RRIRIRPPRLPRPRPRPRVGPRP | 0.334
24 | RRIRIRPPRLPRPRPRPRVRPRP | 0.112
25 | RRIRIRPPRLPRPRPRPRVSPRP | 0.0983

Row | Sequence | shrunken log2 fold change
26 | RRIRIRPPRLPRPRPRPRVTPRP | -0.0426
27 | RRIRIRPPRLPRPRPRPRWAPRP | 0.0908
28 | RRIRIRPPRLPRPRPRPRWTPRP | 0.0809
29 | RRIRIRPPRLPRPRPRPRYAPRP | -0.14
30 | RRIRIRPPRLPRPRPRPSALPRP | -0.832
31 | RRIRIRPPRLPRPRPRPSANPRP | -0.15
32 | RRIRIRPPRLPRPRPRPSARPRP | -0.067
33 | RRIRIRPPRLPRPRPRPSCFPRP | -0.625
34 | RRIRIRPPRLPRPRPRPSCGPRP | -0.174
35 | RRIRIRPPRLPRPRPRPSCNPRP | -0.576
36 | RRIRIRPPRLPRPRPRPSDFPRP | -0.611
37 | RRIRIRPPRLPRPRPRPSDPPRP | -0.136
38 | RRIRIRPPRLPRPRPRPSDSPRP | -0.0385
39 | RRIRIRPPRLPRPRPRPSEDPRP | -0.212
40 | RRIRIRPPRLPRPRPRPSENPRP | -0.356
41 | RRIRIRPPRLPRPRPRPSEPPRP | -0.192
42 | RRIRIRPPRLPRPRPRPSICPRP | -0.814
43 | RRIRIRPPRLPRPRPRPSIVPRP | -0.477
44 | RRIRIRPPRLPRPRPRPSKDPRP | -1.02
45 | RRIRIRPPRLPRPRPRPSKLPRP | -1.04
46 | RRIRIRPPRLPRPRPRPSLQPRP | -0.331
47 | RRIRIRPPRLPRPRPRPSMDPRP | -0.353
48 | RRIRIRPPRLPRPRPRPSNCPRP | -0.24
49 | RRIRIRPPRLPRPRPRPSQRPRP | -0.466
50 | RRIRIRPPRLPRPRPRPSQTPRP | -0.0359

Row | Sequence | shrunken log2 fold change
51 | RRIRIRPPRLPRPRPRPSRRPRP | 0.35
52 | RRIRIRPPRLPRPRPRPSSEPRP | -0.299
53 | RRIRIRPPRLPRPRPRPSTDPRP | -0.247
54 | RRIRIRPPRLPRPRPRPSVLPRP | -0.189
55 | RRIRIRPPRLPRPRPRPSVMPRP | -0.286
56 | RRIRIRPPRLPRPRPRPSWGPRP | -0.0874
57 | RRIRIRPPRLPRPRPRPTEVPRP | 0.232
58 | RRIRIRPPRLPRPRPRPTFFPRP | -0.292
59 | RRIRIRPPRLPRPRPRPTGLPRP | 0.375
60 | RRIRIRPPRLPRPRPRPTGMPRP | -0.161
61 | RRIRIRPPRLPRPRPRPTGRPRP | -0.0536
62 | RRIRIRPPRLPRPRPRPTGTPRP | -0.109
63 | RRIRIRPPRLPRPRPRPTIYPRP | -0.865
64 | RRIRIRPPRLPRPRPRPTKCPRP | -0.696
65 | RRIRIRPPRLPRPRPRPTLPPRP | 0.0197
66 | RRIRIRPPRLPRPRPRPTMKPRP | -0.309
67 | RRIRIRPPRLPRPRPRPTMSPRP | -0.124
68 | RRIRIRPPRLPRPRPRPTMVPRP | -0.719
69 | RRIRIRPPRLPRPRPRPTNGPRP | -0.166
70 | RRIRIRPPRLPRPRPRPTNNPRP | -0.629
71 | RRIRIRPPRLPRPRPRPTNTPRP | -0.45
72 | RRIRIRPPRLPRPRPRPTNYPRP | -0.745
73 | RRIRIRPPRLPRPRPRPTPAPRP | 0.198
74 | RRIRIRPPRLPRPRPRPTPVPRP | 0.234
75 | RRIRIRPPRLPRPRPRPTQPPRP | -0.0427

Row | Sequence | shrunken log2 fold change
76 | RRIRIRPPRLPRPRPRPTSEPRP | 0.00551
77 | RRIRIRPPRLPRPRPRPTSHPRP | -0.19
78 | RRIRIRPPRLPRPRPRPTTKPRP | -0.664
79 | RRIRIRPPRLPRPRPRPTTRPRP | -0.0487
80 | RRIRIRPPRLPRPRPRPTVLPRP | -0.369
81 | RRIRIRPPRLPRPRPRPTVNPRP | -0.608
82 | RRIRIRPPRLPRPRPRPTWLPRP | -0.124
83 | RRIRIRPPRLPRPRPRPTYIPRP | -1.29
84 | RRIRIRPPRLPRPRPRPTYYPRP | -0.827
85 | RRIRIRPPRLPRPRPRPVCNPRP | -0.52
86 | RRIRIRPPRLPRPRPRPVCWPRP | 0.32
87 | RRIRIRPPRLPRPRPRPVEMPRP | -0.299
88 | RRIRIRPPRLPRPRPRPVFWPRP | 0.201
89 | RRIRIRPPRLPRPRPRPVGQPRP | -0.195
90 | RRIRIRPPRLPRPRPRPVHFPRP | -0.355
91 | RRIRIRPPRLPRPRPRPVICPRP | -0.063
92 | RRIRIRPPRLPRPRPRPVIWPRP | 0.204
93 | RRIRIRPPRLPRPRPRPVKQPRP | 0.101
94 | RRIRIRPPRLPRPRPRPVKRPRP | -0.09
95 | RRIRIRPPRLPRPRPRPVNFPRP | -0.0259
96 | RRIRIRPPRLPRPRPRPVPYPRP | -0.556
97 | RRIRIRPPRLPRPRPRPVQSPRP | -0.168
98 | RRIRIRPPRLPRPRPRPVRNPRP | -0.0578
99 | RRIRIRPPRLPRPRPRPVRRPRP | 0.377
100 | RRIRIRPPRLPRPRPRPVRWPRP | 0.474

Row | Sequence | shrunken log2 fold change
101 | RRIRIRPPRLPRPRPRPVSLPRP | -0.147
102 | RRIRIRPPRLPRPRPRPVTNPRP | -0.208
103 | RRIRIRPPRLPRPRPRPVWNPRP | -0.576
104 | RRIRIRPPRLPRPRPRPVYRPRP | 0.00778
105 | RRIRIRPPRLPRPRPRPWAFPRP | -0.0187
106 | RRIRIRPPRLPRPRPRPWCNPRP | -0.33
107 | RRIRIRPPRLPRPRPRPWDFPRP | -0.11
108 | RRIRIRPPRLPRPRPRPWDHPRP | 0.0393
109 | RRIRIRPPRLPRPRPRPWDMPRP | -0.00715
110 | RRIRIRPPRLPRPRPRPWFAPRP | -0.31
111 | RRIRIRPPRLPRPRPRPWFEPRP | -0.161
112 | RRIRIRPPRLPRPRPRPWHGPRP | -0.0996
113 | RRIRIRPPRLPRPRPRPWKKPRP | 0.00748
114 | RRIRIRPPRLPRPRPRPWKSPRP | -0.0108
115 | RRIRIRPPRLPRPRPRPWKVPRP | 0.0349
116 | RRIRIRPPRLPRPRPRPWNNPRP | -0.89
117 | RRIRIRPPRLPRPRPRPWPSPRP | 0.193
118 | RRIRIRPPRLPRPRPRPWPVPRP | -0.0355
119 | RRIRIRPPRLPRPRPRPWQFPRP | -0.243
120 | RRIRIRPPRLPRPRPRPWRAPRP | 0.0578
121 | RRIRIRPPRLPRPRPRPWRSPRP | 0.00683
122 | RRIRIRPPRLPRPRPRPWRVPRP | -0.0531
123 | RRIRIRPPRLPRPRPRPWSLPRP | -0.449
124 | RRIRIRPPRLPRPRPRPWSMPRP | -0.00809
125 | RRIRIRPPRLPRPRPRPWTQPRP | 0.0826

Row | Sequence | shrunken log2 fold change
126 | RRIRIRPPRLPRPRPRPWVLPRP | -0.142
127 | RRIRIRPPRLPRPRPRPWWCPRP | -0.196
128 | RRIRIRPPRLPRPRPRPWWQPRP | 0.0732
129 | RRIRIRPPRLPRPRPRPWYGPRP | -1.24
130 | RRIRIRPPRLPRPRPRPWYYPRP | -0.00149
131 | RRIRIRPPRLPRPRPRPYAFPRP | -1.1
132 | RRIRIRPPRLPRPRPRPYAWPRP | -0.402
133 | RRIRIRPPRLPRPRPRPYCAPRP | -0.978
134 | RRIRIRPPRLPRPRPRPYCGPRP | -0.179
135 | RRIRIRPPRLPRPRPRPYCKPRP | -0.592
136 | RRIRIRPPRLPRPRPRPYCWPRP | -0.185
137 | RRIRIRPPRLPRPRPRPYEYPRP | -0.0772
138 | RRIRIRPPRLPRPRPRPYFTPRP | -0.702
139 | RRIRIRPPRLPRPRPRPYGEPRP | -0.148
140 | RRIRIRPPRLPRPRPRPYGWPRP | -0.0644
141 | RRIRIRPPRLPRPRPRPYHCPRP | -0.0272
142 | RRIRIRPPRLPRPRPRPYIQPRP | -1.75
143 | RRIRIRPPRLPRPRPRPYLLPRP | -1.52
144 | RRIRIRPPRLPRPRPRPYLSPRP | -0.0357
145 | RRIRIRPPRLPRPRPRPYMPPRP | -1.27
146 | RRIRIRPPRLPRPRPRPYQDPRP | -0.0361
147 | RRIRIRPPRLPRPRPRPYQQPRP | -0.0163
148 | RRIRIRPPRLPRPRPRPYRHPRP | -0.0614
149 | RRIRIRPPRLPRPRPRPYVNPRP | -0.0125
150 | RRIRIRPPRLPRPRPRPYVTPRP | -0.526
